Like-named read-outs stand apart in the source and are kept apart here. Values belong to the binder of their own block, whether it stands above or below them.
B1: Tom6 (natural protein, S. cerevisiae, UniProt P33448 1-61, looked up)
chain: MDGMFAMPGAAAGAASPQQPKSRFQAFKESPLYTIALNGAFFVAGVAFIQSPLMDMLAPQL
B2: Tom7 (natural protein, S. cerevisiae, UniProt P53507 1-60, looked up)
chain: MSFLPSFILSDESKERISKILTLTHNVAHYGWIPFVLYLGWAHTSNRPNFLNLLSPLPSV
B3: Tom40 with a C-terminal Strep-tag (overexpressed, wild type) (natural protein, S. cerevisiae, UniProt P23644 1-387, looked up)
chain: MSAPTPLAEASQIPTIPALSPLTAKQSKGNFFSSNPISSFVVDTYKQLHSHRQSLELVNPGTVENLNKEVSRDVFLSQYFFTGLRADLNKAFSMNPAFQTSHTFSIGSQALPKYAFSALFANDNLFAQGNIDNDLSVSGRLNYGWDKKNISKVNLQISDGQPTMCQLEQDYQASDFSVNVKTLNPSFSEKGEFTGVAVASFLQSVTPQLALGLETLYSRTDGSAPGDAGVSYLTRYVSKKQDWIFSGQLQANGALIASLWRKVAQNVEAGIETTLQAGMVPITDPLMGTPIGIQPTVEGSTTIGAKYEYRQSVYRGTLDSNGKVACFLERKVLPTLSVLFCGEIDHFKNDTKIGCGLQFETAGNQELLMLQQGLDADGNPLQALPQL
B4: core TOM complex from S. cerevisiae (Tom40, Tom22, Tom5, Tom6, Tom7) (complex)
chain 1: B3 chain
chain 2: MVELTEIKDDVVQLDEPQFSRNQAIVEEKASATNNDVVDDEDDSDSDFEDEFDENETLLDRIVALKDIVPPGKRQTISNFFGFTSSFVRNAFTKSGNLAWTLTTTALLLGVPLSLSILAEQQLIEMEKTFDLQSDANNILAQGEKDAAATAN
chain 3: MFGLPQQEVSEEEKRAHQEQTEKTLKQAAYVAAFLWVSPMIWHLVKKQWK
chain 4: B1 chain
chain 5: B2 chain
B5: Tom22 with a C-terminal His-tag (natural protein, S. cerevisiae, UniProt P49334 1-152, looked up)
chain: B4 chain 2

Key:
[1] = molecular target: B3; experiment: cryo-EM structure
[2] = molecular target: B3; experiment: cryo-EM structure; remark: listed apart in the source
cryo-EM structure = molecular target: the molecule itself; experiment: cryo-EM structure
SEC = molecular target: the molecule itself; experiment: SEC
[3] = molecular target: B5; experiment: cryo-EM structure

Binder: B1
binding result [1]: binds

Binder: B2
binding result [2]: binds

Binder: B3
binding result (cryo-EM structure): binds

Binder: B4
stoichiometry N (SEC): 2

binding result [3]: binds
binding result [2]: binds
Binder: MFGLPQQEVSEEEKRAHQEQTEKTLKQAAYVAAFLWVSPMIWHLVKKQWK (natural protein, S. cerevisiae, UniProt P80967 1-50, looked up) [Tom5]

Binder: B5
binding result [2]: binds

— paper PMC8439582 (Nature structural & molecular biology, 2019)
